The nanobody polyreactivity screen of Harvey et al. (2022)

Assay: yeast display, Sf9 membrane polyspecificity reagent, FACS + sequencing; frameworks hold sequencing errors
Procedure, shortened: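 Galactose induction of a Saccharomyces cerevisiae BJ5465 synthetic nanobody display library ran 36–48 hours. The cells were then stained for 1 hour at 4 °C with 10% biotinylated, detergent-solubilized Sf9 membrane reagent, pulled down on streptavidin microbeads and FACS-sorted into low and high (top ~1%) gates on expression and reagent-binding fluorescence. Labels for polyreactivity follow the gate of origin.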

Sequence	polyreactivity (PSR sort gate)
QVQLVESGGGLVQAGGSLRLSCAASGTFYYAMGWYRQAPGKEREFVAAISWRGGTTYYADSVKGRFTMSRDNAKNTVYLQMNSLKPEDTAVYYCATAPYVTSRRYGPYEYWGQGTQVTVSS	low polyreactivity
QVQLVESGGGLVQAGGSLRLSCAASGRIFWPYTMGGYRQAPGKETELVAVITYSGGSTYYADSVKGRFTISRDNAKNTVYLQMNSLIPEDTEVYYCNAGIRFYLHAHGYYWGQGTQVTVSS	high polyreactivity
KVQLVESGGGLVQAGGSLRLSCAASGSTFYQYAMGWYRQAPGKERELVAVITGSGGSTYYADSVKGRFTISRDNAKNTVYLQMNSLKPEDTAVYYCAAGARYFKYRTTSLGGNYWGQGTQVTVSS	high polyreactivity
QVQLVESGGGLVQAGGSLRLSCAASGITLVFNAMGWYRQAPGKERELVAAITSGGITNYADSVKGRFTISRDNAKNTVYLQMNSLKPEDTAVYYCATDYGYFHYPWCPLWGYEYWGQGTQVTVSS	low polyreactivity
QVQLVESGGGLVQAGGSLRLSCAASGRTFIKYALGSYRQAPGKERELVAAISRNGGSTNYADSVKGRFTISRDNAKNTVYLLMNSLKPEDPAVYYCAAVGTVSRTVGYNYWGQGSQVTVSS	high polyreactivity
QVQLVDSGGGLVQAGGSLSLSCAASGNIFDYNVMGWYRQAPGKERELVAAITASAVRTYYADSVKGRFTISRDNAKNTVYLQMNSLKPEDIAVYYCGKRRIVRQRSYYYWGQGTQVTVSS	low polyreactivity
QVQLVESGGGLVQAGGSLRLSCAASGSTFFRYAMGWYRQAPGKERELVAAISWSGGTTYYADSVKGRFTISRDNAKNTVYLQMNSLKPEDTAVYYCAVDGGRWGQGTQVTVSS	low polyreactivity
QVQLVESGGGLVQAGGSLRLSCAASGFIFSSYAMAWYRQAPGKERDLVAAISKSGDRTSYADSVKGRFTISRDNAKNTVYLQMNSLKPEDTAVYYCAKDRLYRTKKYRDMYYWGQGTQVSVSS	high polyreactivity
QVQLVESGGGLVQAGGSLRLSCAASGYIFYAYAMGWSRQAPGKERELVAAISSGGGRTYYADSVKGRFTISRDNAKNTVYLQMNSLKPEDTAVYYCAARRRDRGEYYYWGQGTQVTVSS	high polyreactivity
QVQLVESGGGLVQAGGSLRLSCAASGYIFRYNAMGWYRQAPGKEREFVASISQRGGSTYYADSVKGRFTISRDNAKNTVYLQMNSLKPEDTAVYYCAARLGYYSYEYNYWGQGTQVTVSS	high polyreactivity
QDQLVESGGGLVQAGGSLRLSCAASGRTFYIYAMGWYRQATGKERELVAAISSYTSTKYADSVKGRFTISRDNAKNTVYLQMICLKPEDTAVYYCASGYPVRYRGYLNWSYYAYDYWGQGTQVTVSS	low polyreactivity
QVQLVESRGGLVQARGSLRLSSAASGFIFNANAMGCYRPAPGKESELVAAIDDGDSTYADSVKGRFTISRDNAKNTVYLQMNSLKPEDTAVYYCAVDGGEFSSYGYWGEGTQVTVSS	low polyreactivity
QVQIVESGGGLVQAGGSLRLSCAASGRIFDLNAMGWYRQAPGKEREFVASITWSVGSTYYADSVKGRFTISRDNAKNTVYLQMNSLKPEVTAVYYCAARSLSWTPYYYWGQGTQVTVSS	high polyreactivity
QVQLVESGGGLVQAGGSLRLSCADSGSTFKGYTMGWYRQAPGKERELVAAIRSRSGNTYYADSVKGRFTISRDNAKNHVYLLMNSLKPEETAVYYCAAVQPYVDYDSWGQGTQVTVSS	high polyreactivity
QVQLVESGGGLVQAGGSLRLSCAASGRTFWVYAMGWYRQAPGKERELVASISWSVGSTYYADSVKGRFTISRDNAKNTVYLQMNSLKPEDTAVYYCAVDPATNVEGDYWGQGTQVTVSS	low polyreactivity
QVQLVESGGGLVQAGRSLRLSSAASGNTFAGNAMGWYRQAPGKERELVAAISWSGTRTYYADSVKGRFTISRDNAKNTVYLQMNSLKPEDTAVYYCAKLSTNKEYYWGQGTQVTVSS	high polyreactivity
QVQLVESRGGLVQAGGSLRLSCAASGRTIYPYTMGCYRQAPGKERELVAAISSSGTRTYYADSVKGRFTISRDIAKNTVYLQMNSLKPEDTAVYDCATRRPGSFGYWGQGTQVTVSS	high polyreactivity
QVQLVESGGGLVQAGGSLRLSCAASGFTFPNYAMGWYRQAPGKERELVAAITSGGGRTNYADSVKGRFTISRDNAKNTVYLQMNSLKPEDTAVYYCAKTRVRGSEFGYWGQGTQVTVSS	low polyreactivity
QVHLEESGGGLVQAGGSLRLTCAASGFTFQLYAMGWYRQPPGKERELVAAINYRGSSTYYADSVKGRFTISRDNAKNTVYLQMNSLKPEDTAVYYCNAAQYYERFNHWGQGTQVTVSS	high polyreactivity
QVQLVESGGGLVQAGGSLRLSCAASGRTFNINAMGWYRPAPGKERELVASISWGGGRTYSADSVKGRFTISRDNAKNTVYLQKNSLKPEDPAVYYCAADYAGNKGVPYYYKYNYWGQGTQVTVSS	high polyreactivity
QVQLVESGGGLVQAGGSLRLSCAASGYIFNYYAMGWYRQAPGKERELVAAITSGDSTYADSVKGRFTISRDNAKNTVYLQMNSLKPEDTAVYYCAAEISILPFVTPDTIYGYWGQGTQVTVSS	low polyreactivity
QVQLVESGGGLVQAGGSLRLSCAASGRTFDDYAKGWYRQAPGKETEFVAAITRSGGGTHYADSVKGRFTISRDNAKNTVYLQMNSLKPEDTAVYYCAARAHGTYVRRRYDYWGQGTQVTVSS	high polyreactivity

Sequence	polyreactivity (PSR sort gate)
QVQLVESGGGLVQAGGSLRLSCAASGRTFRFYAMGWNRQAPGKERELVAAINWTGGSTYYADSVKGRFTISRDNAKNTVYLQMNSLKPEDTAVYYCAKVQDYRFEYWGQGTQVTVSS	high polyreactivity
QVQLVESGGGLVQAGGSLRLSCAASGSTFELYAMGLYRQAPGKERELVASITGDSTNYADSVKGRFTISRDNAKNTVYLQMNSLKPEDTAVYYCAAEYVPYYEYESWGQGTQVTVSS	low polyreactivity
QVQLVESGGGLVQAGGSLRLSCAASGRIFYRYAMGWYSQAPGKESELVAAITWRGGSTSYPDSVKGRFTISRDNAKNTVYLQMNSLKPEATAVYYCAAAAYGVPWRSYLGVFKSHMDYWGQGTQVTVSS	high polyreactivity
QVQLVESGGGLVQAGGSLSLICAAYGSTLGVYAMGWYIQAPGKERELVAAISSGGSTTYADSVKGRFTISRDNAKNTVYLQMNSLKPEDTAVYYCAADRYEGYVTWYWWGAYNYDYWGQGTQVTVSS	high polyreactivity
QVQLVESGGGLVQAGGSLRLSCAASGSTYHYAMGWYRQAPGKERELVASITWRGDTTYYADSVKGRFTISRDNAKNTVYLQMNSLKPEDTAVYYCAARKFFRQGGKRYDYWGQGTQVTVSS	high polyreactivity
QVQLVESGGGLVQAGGSLRLSCAASGRIFIYYAMGWYRQAPGKERELVAAITRGGNTNYADSVKGRFTISRDNAKNTVYLQMNSLKPEDTAVYYCAAAIRYGSRHRGYWGQGTQVTVSS	low polyreactivity
QVQLVESGGGLVQAGGSLRLICAASGSIFIRNAMGWYRQAPGKERELVAAITSRGGSTYYADSVKGRFTISRDNAKNTVFLQMNSLKPEDTAVYYCARRYYGLYDYWGQGTQVTVSS	low polyreactivity
QVQLVESGGGLVQAGGSLRLSCAASGRILYRYAMGWYRQAPGKERELVAAITWRGGTTYYADSVKGRFTISRDNAKNTVYLQMISLKPEDTAVYYCNSDWWRTLESDYWGQGTQVTVSS	low polyreactivity
QVQLVESGAGLVQARGSLRISCAASGSIFGRYAMGWYRQAPRKERELVASIYSTGGRTYYADSVKGRFTISRDNAKNTVYLQMNSLKPEDTAVYYCAAKFYEYSTAGTQWIRYYYWGQGTQVTVSS	high polyreactivity
QVQLVESGAGLVQAGGILLLSSAASGRIFLFYSLGWSRQEPGKERELVAAISVRGGSTYYADSVKGRITISRDNAKNTVFLQMNSLKPEDTAVYYCNAPNYRSRFDYWGQGTQVTVSS	high polyreactivity
QVQLVESGGGLVQAGGSLRLSCAASGSIFGYNAMGWYRQAPGKERELVADISSGDSTNYADSVKGRFTISRDNAKNTVYLQMNSLKPEDTAVYYCAADFTYQGSSANDYWGQGTQVTVSS	low polyreactivity
QVQLVESGGGLVQAGGSLRLSCAASGSIFYVYAMGWYRQAPGKERELVATISTGGSTYYADSVKGRFTISRDNAKNTVYLQMNSLKPEDTAVYYCNAQFTPRYRGGYDSWGQCTQVTVSS	low polyreactivity
QVQLVESGGGLDQAGGSLRLSCAASGTTFRNNAMGWYRQAPGKERELVAVITGDGGSTYYADSVKGRFTISRDNAKNTVYLEMNSLKPEDTAVYYCNARSIRYSRFRQRFGYWGQGTQVTVSS	low polyreactivity
QEQLVESGGGLVQAGGSLRLSCAASGSIRYYAMGWDRQAPGKESELVATITRGGSTYYADSVKGRFTISRDNAKNTVYLQMNSLKPEDTAVYYCAARRAVRVGYYWHDISSYDYWGQGTQVTVSS	low polyreactivity
QVQLVESGGGLVQAGGSLRLSCAASGYIFGNYAMGWYRQAPGKERELVAAISKSGVTTYYADSVKGRFTISRDNAKNTVYLQMNSLKPEDTAVYYCIARSWRPINARYNEYDYWGQGTQVTVSS	low polyreactivity
QVQLVESGGGLVQAGGSLRLSCAASGSIFTYYAMGWYRQAPGKERELVAAITSTGGSTYYADSVKGRFTISRDNAKNTVYLQMNSLKPEDTAVYYCATDYGYYDYWGQGTQVTVSS	low polyreactivity
QVQLVESGGGLVQAGGSLRLSCAASGSTFKVYAMGWYRQAPGKEMELDAAISRSGGRTYYADSVKGRFTISRDNAKNTVYLQMNSLKPEDTAVYYCNRDYTYSQGHYSGSYDYWGQGTQVTVSS	high polyreactivity
QVQLVESGGGLVQAGGSLRLSCAASGSIFSRNAMGWYRQAPGKEREFVARISWSSTSTNYADSVKGRFTISRDNSKNTVFLLINSLKPEDTAVYYCAADFRGDRRFDYWGQGTQVTVSS	low polyreactivity
QVQLVESGGGLVQAGGSLRLSCAASGSTFGYYAMGWYRQAPGKERELVAAISKRGGSTYYADSVKGRFTISRDNAKNTVYLQMNSLKPEDTAVYYCAAAPYKYPGDYWGQGTQVTVSS	high polyreactivity
QVQLVESGARLVQAGGSLRLSCAPSGSIFAYNAMGWYRQAPGKERELVAAITKSGGSTYYADSVKGRFTISRDHAKNTVYLQMNSLKPEDTAVDYCNVVVPHSISSHGDYWGQGTQVTVSS	low polyreactivity
QVQLVESGGGLVQAGGSLRLSCAASGRTFRFYAMGWYRQAPGKERELVATIRSGASTYYADSVKGRFTISRDNAKNTVYLQMNSLKPEDTAVYYCAAGLYFPYVSVIVFRSYDYWGQGTQVTVSS	high polyreactivity
